According to US9700619B2, “Combination drug therapy for the treatment of solid tumors” (Duke University, priority 2011, dated 2017):

Legend:
[1] = test system: patients with advanced solid tumors; assay: Phase I study of ganitumab plus everolimus: DLT, MTD/RPTD and adverse events (NCI Common Toxicity Criteria version 4.0); type: in vivo; conditions: subjects on G+E, summary
Method: The maximum tolerated doses/recommended phase II dose for the doublet combination, ganitumab (G) plus everolimus (E) followed by an expanded cohort was evaluated to better understand the safety and tolerability profile of this drug combination.
The primary objective of this study was to determine the maximum tolerated dose (MTD) and Recommended Phase II Dose (RPTD) of G+E in patients with advanced solid tumors. Secondary objectives were to describe any toxicities associated with this regimen and to preliminarily describe clinical activity (progression-free survival (PFS)), overall survival (OS), partial response (PR), complete response (CR) or stable disease (SD)>6 months.
For dose escalation, eligible patients had advanced solid tumors with adequate organ function and no increased risk for class-related toxicities. G was given intravenously, and E was orally administered; cycle length was 28 days. Stage I was a dose escalation; cohort size: 3-6 patients; Stage II was an expansion at MTD with a cohort size of 20 patients.
An intermediate dose of E at 5 mg five times weekly was added to better maximize dose intensity. Dose limiting toxicity (DLT) was assessed in cycle 1.
AEs were graded according to the NCI Common Toxicity Criteria version 4.0. Efficacy was assessed every 2 cycles with computed tomography (CT) using Response Evaluation Criteria in Solid Tumors (RECIST 1.1) guidelines.

skin = assay: Dermapathology evaluation of cutaneous biopsies from study subjects; type: in vivo, human
Excerpt: Dose escalation was complete with 17 subjects evaluable for DLT toxicity and 16 evaluable for efficacy (see Table 2). […] One non-treatment-related death was due to disease progression. […] Twelve subjects have available efficacy data; 4 subjects have not yet been restaged. Two subjects with refractory NSCLC achieved a complete response. Six additional subjects had stable disease as best response.

ganitumab
Skin toxicities [1]: consistent with hypersensitivity to Ganitumab | Finding in the third cutaneous biopsy (skin; interpreted as part of the skin toxicity to G): spongiotic dermatitis with mixed inflammatory infiltrate with abundant eosinophils | Cutaneous biopsies revealing hypersensitivity reaction in the form of superficial perivascular dermatitis (skin; mild perivascular lymphocytic infiltrate with eosinophils, subjects on G+E): 2 out of 3
